Reference: patent publication US8729028B2, “Noggin-derived peptide and use thereof” (Caregen Co., Ltd., priority 2009, dated 2014)
Values belong to the molecule of their own block, whether it stands above or below them. Where no end group is shown, it is not given here. The star is where a group is joined. Biotin = O=C1N[C@H]2[C@H](CS[C@H]2CCCCC(=O)*)N1

Tests used:
[1] = molecular target: T1, BMP-4 (Homo sapiens, UniProt P12644); experiment: Melanin production in α-MSH-induced, BMP-4-treated melanocytes (antagonistic activity against BMP-4); format: cell-based; conditions: for melanin production: C57BL/6 mouse melanocytes, 200 μg/mL α-MSH, 1 μg/mL BMP-4, cultured 3 days, observed with naked eyes (FIG. 5)
T1 construct: purchased R&D Systems, Inc., USA
T1 sequence (P12644 293-408): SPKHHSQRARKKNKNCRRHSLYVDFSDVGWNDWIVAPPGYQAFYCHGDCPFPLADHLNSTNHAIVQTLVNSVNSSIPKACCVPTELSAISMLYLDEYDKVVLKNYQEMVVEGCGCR
Method: In order to investigate the antagonistic activity of the peptide synthesized in Synthesis Example against the growth factor BMP-4, C57BL/6 mouse melanocytes (Jung Ang Lab. Animal, Korea) were cultured and melanin production was induced with α-melanocyte stimulating hormone (α-MSH; Sigma). Then, after treating with BMP-4 (R&D Systems, Inc., USA) and then immediately with the synthesized peptide at different concentrations, it was checked whether the melanin production inhibited by BMP was activated again. The mouse melanocytes were cultured using DMEM (Sigma) containing 10% FBS (Sigma) at 37° C. under 5% CO2. After culturing the cells on a 24-well plate at 1×10^5 cells/well and confirming attachment of the cells, the cells were treated only with a solvent (control), with 200 μg/mL α-MSH (positive control) or with 1 μg/mL BMP-4. Then, the cells were treated with the peptide of SEQ ID NO: 1. After adding the test substance to each dish, the cells were cultured for 3 days. The test substance had been prepared by dissolving the ingredients in a solvent and diluting to the test concentration using a 5:3:2 mixture solvent of propylene glycol:ethanol:purified water. After removing the medium by centrifugation, the production of melanin could be observed with naked eyes.
For more accurate measurement, cells were washed with PBS and lysed with 1 N sodium hydroxide. Then, after measuring absorbance at 400 nm, inhibition of melanin production was calculated according to the Dooley's method (Dooley, T. P. et al., Skin Pharmacol. 7: 188-200 (1994)), and the result was shown in FIG. 6. The result shown in FIG. 6 coincides with that of FIG. 5.

[2] = molecular target: T2, rh-BMP4 protein (Homo sapiens, UniProt P12644); experiment: Biacore binding of peptide to immobilised BMP4; conditions: CM5 sensor chip, 6000 RU rh-BMP4, peptide 4-1000 μg/mL (FIG. 7)
T2 construct: purchased R&D Systems, Inc., USA
T2 sequence (P12644 293-408): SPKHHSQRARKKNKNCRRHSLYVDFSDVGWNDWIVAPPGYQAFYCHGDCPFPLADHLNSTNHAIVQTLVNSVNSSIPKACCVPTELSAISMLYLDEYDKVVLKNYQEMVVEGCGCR
Method: (§1) In order to investigate whether the peptide synthesized according to the present disclosure binds to the BMP protein, the Biacore instrument allowing the detection of binding between drugs and receptors was used.
(§2) 6000 response units (RU) of rh-BMP4 protein (R&D Systems, Inc., USA) was fixed to a commercially available CM5 sensor chip (Biacore, Sweden) by amination. Then, HBS-EP buffer (Biacore, Sweden) was flown at a rate of 5 μL/min to activate the BMP4 protein on the CM5 sensor chip. After optimization for reaction, the synthesized peptide was flown at different concentrations (1000 μg/mL, 500 μg/mL, 250 μg/mL, 125 μg/mL, 62.5 μg/mL, 31.3 μg/mL, 15.6 μg/mL, 7.8 μg/mL, 4 μg/mL). The binding between BMP4 and the synthetic peptide could be identified from the increase in RU value.

[3] = tested on: C57BL/6 mouse; experiment: Hair growth on depilated back skin of mouse; format: in vivo; conditions: C57BL/6 mouse back, 10 μL of 1 μg/μL on days 0, 2 and 4, observed for 10 days, against PBS (FIG. 10)
Method: In order to investigate the hair growth promoting effect of the peptide synthesized in Synthesis Example, hair of the back of a mouse (C57BL/6, Jung Ang Lab. Animal, Korea) was partially removed using hair removal cream. 10 μL of the peptide of SEQ ID NO: 1 (1 μg/μL) was administered or applied on the upper portion of the back of the mouse, and 10 μL of PBS was administered or applied on the lower portion of the back of the mouse, on days 0, 2 and 4.

[4] = tested on: HaCaT cells; experiment: Laminin and hyaluronic acid production (ELISA kits); format: cell-based; conditions: 72 hours after treatment
Method: HaCaT cells cultured for 48 hours were treated with the peptide synthesized in Synthesis Example. 72 hours later, the level of laminin and hyaluronic acid was measured as an indicator to show the improvement in skin wrinkles. The measurement was made using a laminin ELISA kit (Takara, Japan) and a hyaluronic acid ELISA kit (Takara, Japan).

[5] = tested on: NIH3T3 fibroblasts; experiment: SRB colorimetric assay of cellular growth, fibroblasts; format: cell-based; conditions: NIH3T3, peptide 100 ng/mL, 72 hours, SRB absorbance 590 nm and microscopy (FIGS. 2b, 3)
Method: (§3) To analyze the growth factor-like effect of the peptide synthesized in Synthesis Example, sulforhodamine B (SRB) calorimetric assay was carried out using HaCaT keratinocytes (Korean Cell Line Bank) and NIH3T3 fibroblasts (Korean Cell Line Bank) according to Rizzino et al.'s method (Rizzino et al. Cancer Res. 48: 4266 (1988)).
(§4) HaCaT keratinocytes and NIH3T3 fibroblasts were cultured respectively in a 250-mL tissue culture flask in Eagle's minimal essential media (EMEM; Gibco, U.S.A.) containing 10% fetal bovine serum (FBS; Sigma). The cultured cells were treated with 0.25% trypsin solution to detach the cells from the bottom of the culture flask and centrifuged to collect cell pellets. They were resuspended in FBS-free EMEM and added to each well of a 96-well tissue culture plate, with 4×10^3 cells per well. The cells were cultured under 7% CO2 for 24 hours at 37° C. 24 hours later, the medium was changed with fresh, FBS-containing medium and the cells were incubated for 72 hours under the same conditions as described above with blank sample as reference or with the sterilized synthetic peptide (100 ng/mL) dissolved in water and 10% DMSO. After removing the supernatant, the cells were washed once with phosphate buffered saline (PBS). […] In addition, absorbance was measured at 590 nm to analyze cell proliferation.

[6] = molecular target: T2, rh-BMP4 protein; experiment: Streptavidin chromatography with SDS-PAGE and western blot (immunobinding to BMP4); format: binding; conditions: streptavidin column, elution with NaCl, western blot with anti-BMP4 antibody (FIG. 8b)
Method: The N-terminus of the peptide prepared in Synthesis Example was modified with biotin (Sigma, USA). For streptavidin chromatography, the biotinylated peptide was loaded in a column packed with streptavidin-attached resin and equilibrated with 20 mM sodium phosphate buffer. Then, after flowing rh-BMP4 protein (R&D Systems, Inc., USA) through the column, 200 mM sodium phosphate buffer was flown to flush unbound protein and the protein bound to the biotinylated peptide was fractionated by eluting with 0.2 M NaCl. The eluate was analyzed by SDS-PAGE (see FIG. 8a) and it was confirmed whether the BMP4 protein binds with the biotinylated peptide by western blotting using anti-BMP4 antibody (Santa Cruz, USA) (see FIG. 8b).

[7] = Thermal stability at 37° C. in phosphate buffer, HPLC quantification; format: physicochemical; conditions: 0.11 mg/mL phosphate buffer, days 0-70, compared with reference Noggin (FIG. 9)
Method: The peptide prepared in Synthesis Example and a reference growth factor (Noggin, FGF-10) purchased from NIBSC (UK) were prepared to 0.11 mg/mL phosphate buffer solutions. 1 mL of each prepared solution was put in a glass vial and kept at 37° C. The solution was sampled on days 0, 5, 10, 20, 30, 40 and 70. After centrifugation to remove any denatured peptide or protein, the supernatant was subjected to HPLC for quantification (FIG. 9).

[8] = tested on: HaCaT keratinocytes; experiment: SRB colorimetric assay of cellular growth, keratinocytes; format: cell-based; conditions: peptide 100 ng/mL, 72 hours, SRB absorbance 590 nm and microscopy (FIGS. 2a, 3)
Method: as §3, §4

[9] = molecular target: T3, rh-BMP4 protein (R&D Systems, Inc., USA) (human, UniProt P12644 293-408); experiment: SPR (Biacore), rh-BMP4 fixed on a CM5 chip, peptide flown at 4-1000 µg/mL
T3 construct: Bought protein; also called BMP protein
T3 sequence (looked up): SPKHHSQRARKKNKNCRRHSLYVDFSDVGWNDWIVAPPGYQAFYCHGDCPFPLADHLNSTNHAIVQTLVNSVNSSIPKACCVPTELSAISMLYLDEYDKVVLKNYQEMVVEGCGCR
Method: as §1, §2

Molecule: Glu-Leu-Ile-Glu-His (SEQ ID NO:2)-Linker-Arg-Pro-Ala-Asp (SEQ ID NO:3) peptide (linker=Gly-Gly-Gly) (ELIEHGGGRPAD; listed as Homo sapiens) [SEQ ID NO: 1, noggin-derived peptide]
melanin production [1]: melanin production comparable to that of the α-MSH-treated group | BMP-4 activity ([1]; inferred from restored melanin production in BMP-4-treated mouse melanocytes (FIG. 5)): appropriately inhibits the BMP-4 activity | binding to BMP4 (increase in RU value) [2]: very strong binding ability | hair growth [3]: effective in promoting hair growth | production of hyaluronic acid ([4]; hyaluronic acid ELISA kit (FIG. 4b)): increases the production | production of laminin ([4]; laminin ELISA kit (FIG. 4a)): increases the production | growth of fibroblasts [5]: promote the growth | binding of BMP4 protein to peptide [6]: very strongly binds | thermal stability [7]: much superior thermal stability to the existing noggin peptide | growth of keratinocytes [8]: promote the growth

B1: Glu-Leu-Ile-Glu-His (SEQ ID NO:2)-Linker-Arg-Pro-Ala-Asp (SEQ ID NO:3) peptide (linker=Gly-Gly-Gly) (SEQ ID NO:1) (peptide)
peptide: ELIEHGGGRPAD
notes: Made by solid-phase synthesis; The synthesis text describes an acetylation step with acetic anhydride after the last Fmoc removal; However, the printed theoretical weight of 1250.35 matches the peptide without an acetyl group, so no N-terminal acetyl is entered; also called synthesized peptide
binding result [9]: binds

Other lines, results leading:

binding of BMP4 protein to peptide [6]: bound
Molecule: biotinylated peptide: The N-terminus of the peptide prepared in Synthesis Example was modified with biotin (Biotin-ELIEHGGGRPAD)

melanin production [1]: abrupt increase in melanin production
Molecule: α-melanocyte stimulating hormone [α-MSH, reference compound]
